US20260049134A1 (UNIVERSITY OF FLORIDA RESEARCH FOUNDATION, published 2026)

T1: CADM1-His (Acro Biosystems) (human, UniProt Q9BY67 45-374)
T1 construct: Bought; also called CADM1/IGSF4A; not shown: His tag of the bought protein
T1 sequence: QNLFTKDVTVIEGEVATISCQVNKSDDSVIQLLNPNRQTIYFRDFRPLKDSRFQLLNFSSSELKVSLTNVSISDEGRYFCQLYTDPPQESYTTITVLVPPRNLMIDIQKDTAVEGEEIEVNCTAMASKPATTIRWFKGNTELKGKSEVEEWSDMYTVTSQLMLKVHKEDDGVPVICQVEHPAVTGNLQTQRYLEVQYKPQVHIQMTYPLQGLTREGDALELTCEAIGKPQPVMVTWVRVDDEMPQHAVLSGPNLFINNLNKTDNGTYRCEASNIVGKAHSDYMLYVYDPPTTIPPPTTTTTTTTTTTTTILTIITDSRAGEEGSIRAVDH

T2: SLAMF7
T2 construct: coated protein in the ELISA; also called SLAMF7-StrepTag
T2 chain: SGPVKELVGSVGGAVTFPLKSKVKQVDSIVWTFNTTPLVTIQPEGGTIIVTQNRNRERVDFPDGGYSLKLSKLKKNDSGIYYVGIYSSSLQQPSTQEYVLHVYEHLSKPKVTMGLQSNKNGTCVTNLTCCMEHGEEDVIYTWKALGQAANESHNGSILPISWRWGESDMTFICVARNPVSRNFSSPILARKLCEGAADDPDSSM


Tests used:
[1] = target: T1, CADM1-His (Acro Biosystems); assay: ELISA on coated CADM1-His
Experimental: (§1) Recombinant purified ECDs (50-150 ng) of each putative target protein were coated, incubated with 150 ng of the indicated primary antibody, and binding was detected using a peroxidase-conjugated anti-human Fab secondary antibody. Heatmap represents averages of technical triplicates. (8B) Target validation via siRNA knockdown. H929 cells were transfected with siRNA pools targeting the putative antibody targets ICAM1, CADM1, and PTPRG. Cells were then subjected to cognate IgG binding analysis via flow cytometry. (NT, non-targeting siRNA).
(§2) ELISA ELISA was conducted as described previously. Briefly, 50-150 ng of antigen was coated overnight in half-area 96-well plates at 4° C., blocked with 3% BSA at 37° C. for 1 h, and 150 ng of chimeric rabbit/human IgG1 was added, incubating for 2 h at 37° C. […] After incubating at 37° C. for 15 min-1 h (depending on intensity of controls), data were acquired using a SpectraMax M5 plate reader (Molecular Devices).

[2] = target: T2, SLAMF7; assay: ELISA on coated SLAMF7-StrepTag
Experimental: as §1, §2

[3] = target: T3, PTPRG on U266 cells (human, UniProt P23470); assay: flow cytometry, IgG1 on U266 cells
T3 construct: endogenous on U266 multiple myeloma cells; also called HW-1 target on U266
T3 sequence (P23470 20-1445 limits assumed): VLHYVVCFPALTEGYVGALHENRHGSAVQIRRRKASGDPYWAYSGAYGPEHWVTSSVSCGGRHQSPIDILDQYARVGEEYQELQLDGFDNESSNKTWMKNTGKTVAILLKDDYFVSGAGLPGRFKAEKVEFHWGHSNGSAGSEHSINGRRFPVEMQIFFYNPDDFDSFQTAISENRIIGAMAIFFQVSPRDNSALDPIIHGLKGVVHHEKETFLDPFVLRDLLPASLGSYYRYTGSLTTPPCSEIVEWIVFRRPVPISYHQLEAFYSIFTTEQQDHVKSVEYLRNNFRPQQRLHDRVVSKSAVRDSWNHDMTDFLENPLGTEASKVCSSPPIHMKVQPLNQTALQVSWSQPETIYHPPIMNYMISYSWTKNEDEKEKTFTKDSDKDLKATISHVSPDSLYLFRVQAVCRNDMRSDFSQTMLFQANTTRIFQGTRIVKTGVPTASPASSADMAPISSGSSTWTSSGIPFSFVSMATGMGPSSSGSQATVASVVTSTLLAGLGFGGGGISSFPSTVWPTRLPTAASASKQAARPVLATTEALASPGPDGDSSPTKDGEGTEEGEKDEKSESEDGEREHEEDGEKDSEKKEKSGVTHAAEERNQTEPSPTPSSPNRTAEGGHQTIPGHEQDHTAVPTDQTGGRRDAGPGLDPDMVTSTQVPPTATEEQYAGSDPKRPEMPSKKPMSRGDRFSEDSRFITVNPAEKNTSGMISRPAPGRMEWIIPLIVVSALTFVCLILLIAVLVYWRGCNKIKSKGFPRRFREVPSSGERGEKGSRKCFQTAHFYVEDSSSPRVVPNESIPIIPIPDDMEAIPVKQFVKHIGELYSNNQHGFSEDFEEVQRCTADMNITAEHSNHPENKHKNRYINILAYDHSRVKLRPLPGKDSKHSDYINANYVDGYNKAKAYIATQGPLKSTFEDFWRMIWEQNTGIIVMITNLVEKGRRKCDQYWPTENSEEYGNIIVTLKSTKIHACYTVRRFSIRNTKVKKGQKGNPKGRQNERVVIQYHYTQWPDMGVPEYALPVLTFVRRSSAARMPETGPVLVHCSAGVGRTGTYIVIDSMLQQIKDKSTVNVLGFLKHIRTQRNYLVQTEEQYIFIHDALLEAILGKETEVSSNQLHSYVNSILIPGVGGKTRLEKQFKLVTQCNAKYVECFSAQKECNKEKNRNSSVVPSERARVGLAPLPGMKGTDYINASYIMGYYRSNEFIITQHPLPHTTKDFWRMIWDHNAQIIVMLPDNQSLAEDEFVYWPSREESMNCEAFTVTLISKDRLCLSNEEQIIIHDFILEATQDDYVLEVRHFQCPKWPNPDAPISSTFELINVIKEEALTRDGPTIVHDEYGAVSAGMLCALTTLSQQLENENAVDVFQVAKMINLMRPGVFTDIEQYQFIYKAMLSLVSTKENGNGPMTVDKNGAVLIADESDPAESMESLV
Experimental: Staining protocol. Cells were harvested (5×10⁴ cells per sample), washed once with phosphate-buffered saline (PBS) at RT, and a second time with ice-cold FACS buffer (PBS, 0.5% BSA, 2 mM EDTA, 0.1% NaN₃). Cells were stained in 50 μL of primary antibody for 30 min on ice, washed twice with 100 μL FACS buffer, stained with 50 μL of diluted secondary antibody, washed two more times in FACS, and then resuspended in 50 μL FACS buffer. Samples were acquired on an Accuri C6 Plus or a BD FACSCanto II flow cytometer (both from BD Biosciences). Data were analyzed using FlowJo version 10 software. Primary antibodies: Fab (10 μg/mL), IgG1 (0.1 to 50 μg/mL), or 25 μL polyclonal Fabs from periplasmic extracts. Polyclonal Fabs were produced by diluting bacterial stocks by a factor of 100 in autoinduction media and incubating overnight to induce expression as previously described. […] Viability stains: DAPI (Cell Signaling Technology) or SYTOX AADvanced Dead Cell Stain (Thermo Fisher Scientific). Labeling: The panel of chimeric rabbit/human IgG1s was labeled using the Alexa Fluor 647 Labeling Kit (Thermo Fisher Scientific, #A20173) to facilitate single-step staining. Competition: Unlabeled IgG1s were added at saturating concentrations of 60 μg/mL to block the target receptors, incubating on ice for 30 min, followed by the addition of an equal volume of the Alexa Fluor 647 labeled antibody at 2 μg/mL, and the mixture was incubated on ice for another 30 min.

Binder	antibody-bound positive cells (%) [3]	binding result [1]	binding result [2]
HW-101 chimeric rabbit-human IgG1 LA/LA/PG (antibody, V domains shown, Fc-silenced (L234A/L235A/P329G) IgG1, lambda; Alexa Fluor 647-labeled in single-step flow cytometry; Cluster C-97) VH: QEQLVESGGRLVTPGTPLTLTCKASGFSLGKYDMSWVRQAPGKGLEWIGTIYAGSGSTWYASWAKGRFTISKTSTTVDLKMTSLTTEDTATYFCARDFLGVNSIWGPGTLVTISS VL: SFVLTQPASVQVNLGQTVSLTCTADTLSRSYASWYQQKPDQAPVLLIHRDTSRPSGVPDRFSGSNSGNTATLTISGAQAGDEADYYCATSDGSGSNFHFVFGGGTQLTVTG			no binding (tested: 150 ng IgG1 per well)
HW-97 chimeric rabbit-human IgG1 LA/LA/PG (antibody, V domains shown, Fc-silenced (L234A/L235A/P329G) IgG1, lambda; Alexa Fluor 647-labeled in single-step flow cytometry; Prototype of cluster C-97) VH: QKQLVESGGRLVTPGTPLTLTCTVTGIDLSSHGMSWVRQAPGKGLEWIGVIYPSGSTWYASWARGRFTISKTSTTVDLKMTSLTTEDTATHFCARGDVGGADNNIWGPGTLVTVSS VL: SFVLTQPASVQVDLGQTVSLTCTAETLSRSYASWYQQKPGQAPVLLIYRDTSRPSGVPDRFSGSSSGNTATLTISGAQAGDEADYYCATSDGSGSSYQYVFGGGTQLTVTG			no binding (tested: 150 ng IgG1 per well)
HW-113 chimeric rabbit-human IgG1 LA/LA/PG (antibody, V domains shown, Fc-silenced (L234A/L235A/P329G) IgG1, lambda; Alexa Fluor 647-labeled in single-step flow cytometry) VH: QKQLVESGGGLVQPGGSLTLTCTVSGFSLNKYYMGWFRQAPGKGLEWIGVISRSGDTYYSSWAKGRFTISKASTTVDLRITSPTTEDTATYFCARDASSPGFHGDRLDLWGQGTLVTVSS VL: SFVLTQPASVQVNLGQTVSLTCTADTLSRSYASWYQQKPGQAPVLLIYRDTSRPSGVPDRFSGSSSGNTATLTISGAQAGDEADYYCATSDGIGSNYLWVFGGGTQLTVTG			no binding (tested: 150 ng IgG1 per well)
TH9-0022 (antibody, human IgG1, kappa, L234A L235A, V domains shown, also called TH9-022; negative control) VH: QSLEESGGRLVTPGTPLTLTCTVSGFSLSSYAMNWVRQAPGKGLEWIGIINSYGSTYYASWAKGRFTISKTSTTVDLKITSPTTEDTATYFCARVTYDSYGYGYAPYGMDLWGPGTLVTVSS VL: LVMTQTPSSTSNAVGGTVTIKCQASQSIGNVLAWYQQKPGQPPKLLIYAASTLASGVPSRVGGSRSGTEYTLTISGVQREDAATYYCLGSDSDSDIAFGGGTELEILR		no binding (tested: 150 ng IgG1 per well)	no binding (tested: 150 ng IgG1 per well)

Second part, led by results:

antibody-bound positive cells (%) [3]	Binder	binding result [1]	binding result [2]
64.5%	HW-42 chimeric rabbit-human IgG1 LA/LA/PG (antibody, V domains shown, Fc-silenced (L234A/L235A/P329G) IgG1, lambda; Alexa Fluor 647-labeled in single-step flow cytometry; Cluster C-1) VH: QSVKESEGGLFKPADTLTLTCTVSGFSLSSNEISWVRQAPGEGLEYIGIIDTGGRAYYAVWARSRSTITRNTNLNTVTLKMTSLTAADTATYFCARGGVDTEWYAFSSWGPGTLVTVPS VL: SFVLTQPASVQVNLGQTVSLTCTADTLSRRYASWYQQKPGQAPVLLIFRDTSRPSGVPDRFSGSSSGDTATLTISGAQAGDEADYYCATSDGSGSNYQYVFGGGTQLTVTG	no binding (tested: 150 ng IgG1 per well)	no binding (tested: 150 ng IgG1 per well)
85.2%	HW-17 chimeric rabbit-human IgG1 LA/LA/PG (antibody, V domains shown, Fc-silenced (L234A/L235A/P329G) IgG1, lambda; Alexa Fluor 647-labeled in single-step flow cytometry; Cluster C-1) VH: QSLGESRGRLVTPDETLTLTCTVSGIDLSSNAMSWVRQAPGEGLEWIGTINTGGRAYYASWAKGRFTISRTSTTVDLKMTSLTTEDTATYFCARERYSDGRAYDIWGPGTLVTISS VL: SFVLTQPASVQVNLGQTVSLTCTADTLSRRYASWYQQKPGQAPVLLIYTDSNRPSGIPDRFSGSSSGNTATLTISGAQAGDEADYYCATDDGSGSIYQYVFGGGTQLTVTG		no binding (tested: 150 ng IgG1 per well)
76%	HW-70 chimeric rabbit-human IgG1 LA/LA/PG (antibody, V domains shown, Fc-silenced (L234A/L235A/P329G) IgG1, lambda; Alexa Fluor 647-labeled in single-step flow cytometry; Cluster C-1) VH: QSLEESGGRLVTPGTPLTLTCTVSGFSLSSNAMSWVRQAPGKGLEWIGTIDGYGYTYYASWAKGRFTVSKTSTTVDLKITSPTTEDTATYFCAREIYLGSNFWGPGTLVTISS VL: SFVLTQPASVQVNLGQTVSLTCTADTLSRRYASWYQQKPGQAPVLLIYRDTSRPSGVPDRFSGSSSGNTATLTISGAQAGDEADYYCATADGSGSSYQFVFGGGTQLTVTG	no binding (tested: 150 ng IgG1 per well)	no binding (tested: 150 ng IgG1 per well)
69.6%	HW-25 chimeric rabbit-human IgG1 LA/LA/PG (antibody, V domains shown, Fc-silenced (L234A/L235A/P329G) IgG1, lambda; Alexa Fluor 647-labeled in single-step flow cytometry; Cluster C-1) VH: QSLEESGGRLVTPGTPLTLTCTVSGFSLSSYAMGWVRQAPGKGLEWIGIIDSRGSTYYATWAKGRFTISKTSTTVDLKITSPTTEDTATYFCAREDSYYYDSFNLWGPGTLVTVSS VL: SFVLTQPASVQVNLGQTVSLTCTADTLSRRYASWYQQKPGQAPVLLIYRDTSRPSGVPDRFSGSSSGNTATLTISGAQAGDEADYYCATSDGSGSSYQCVFGGGTQLTVTG	no binding (tested: 150 ng IgG1 per well)	no binding (tested: 150 ng IgG1 per well)
84.4%	HW-1 chimeric rabbit-human IgG1 LA/LA/PG (antibody, V domains shown, Fc-silenced (L234A/L235A/P329G) IgG1, lambda; Alexa Fluor 647-labeled in single-step flow cytometry; Prototype of cluster C-1) VH: QSLEESGGGLFKPTDTLTLTCTASGFSLGSSYAISWVRQAPGKELEWIGTIDSGRAYYARWAKSRSTITRNTNENTVTLKMTSLTAADTATYFCARDLIPTYSQDIWGPGTLVTISS VL: SFVLTQPASVQVNLGQTVSLTCTADTLSRRYASWYQQKPGQAPVLLIYRDTSRPSGVPDRFSGSSSGNTATLTISGAQAGDEADYYCATSDGSGNSYQYVFGGGTQLTVTS		no binding (tested: 150 ng IgG1 per well)
6.5%	TH9-0022 (antibody, human IgG1, kappa, L234A L235A, V domains shown, also called TH9-022; negative control IgG1) VH: QSLEESGGRLVTPGTPLTLTCTVSGFSLSSYAMNWVRQAPGKGLEWIGIINSYGSTYYASWAKGRFTISKTSTTVDLKITSPTTEDTATYFCARVTYDSYGYGYAPYGMDLWGPGTLVTVSS VL: LVMTQTPSSTSNAVGGTVTIKCQASQSIGNVLAWYQQKPGQPPKLLIYAASTLASGVPSRVGGSRSGTEYTLTISGVQREDAATYYCLGSDSDSDIAFGGGTELEILR		
